Test results taken from PMC12198772 (PNAS Nexus, 2025).
Values joined by “and” are separate entries in the source; they are usually repeats but may differ in a detail not shown here. Equal values may be shown once. Read-outs that look alike come from different tables or passages of the source.

Tests used:
Experiment in all cases: BLI
[1] = target: T1, human eye lens-specific protein 20, histidine-tagged (human) (UniProt P55344)
T1 sequence: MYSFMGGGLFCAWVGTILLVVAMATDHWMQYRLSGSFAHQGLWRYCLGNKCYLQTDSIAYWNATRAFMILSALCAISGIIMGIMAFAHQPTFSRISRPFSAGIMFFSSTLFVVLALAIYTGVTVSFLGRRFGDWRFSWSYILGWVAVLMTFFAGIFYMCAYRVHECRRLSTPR

human occludin = human occludin (Homo sapiens, UniProt Q16625)
[2] = target: C-terminal domain of Clostridium perfringens enterotoxin, tag removed (Clostridium perfringens, UniProt P01558)
human claudin-5 [3] = target: T2, human claudin-5 (human, UniProt O00501)
human claudin-6 [4] = target: T3, human claudin-6 (human, UniProt P56747)
human claudin-9 [5] = target: T4, human claudin-9 (human, UniProt O95484)
murine claudin-15 [6] = target: T5, murine claudin-15 (mouse, UniProt Q9Z0S5)
human claudin-17 [7] = target: T6, human claudin-17 (human, UniProt P56750)
[8] = target: T7, human claudin-18 splice variant 18.1 (human, UniProt P56856)
[9] = target: T8, human claudin-18 splice variant 18.2 (human, UniProt P56856-2)
human claudin-19 [10] = target: T9, human claudin-19 (human, UniProt Q8N6F1)
human claudin-1 [11] = target: T10, human claudin-1 (human, UniProt O95832)
human claudin-3 [12] = target: T11, human claudin-3 (human, UniProt O15551)
murine claudin-3 = murine claudin-3 (mouse, UniProt Q9Z0G9)
human claudin-4 [13] = target: T12, human claudin-4 (human, UniProt O14493)
murine claudin-4 [14] = target: murine claudin-4 (mouse, UniProt O35054)
human claudin-5 [15] = target: T2, human claudin-5; remark: listed apart in the source
human claudin-6 [16] = target: T3, human claudin-6; remark: listed apart in the source
human claudin-9 [17] = target: T4, human claudin-9; remark: listed apart in the source
murine claudin-15 [18] = target: T5, murine claudin-15; remark: listed apart in the source
human claudin-17 [19] = target: T6, human claudin-17; remark: listed apart in the source
[20] = target: T7, human claudin-18 splice variant 18.1; remark: listed apart in the source
[21] = target: T8, human claudin-18 splice variant 18.2; remark: listed apart in the source
human claudin-19 [22] = target: T9, human claudin-19; remark: listed apart in the source
[23] = target: human peripheral myelin protein 22 (Homo sapiens, UniProt Q01453)
[24] = target: Kune-kune from Drosophila melanogaster (Drosophila melanogaster, UniProt A1Z6H0)
human claudin-1 [25] = target: T10, human claudin-1; remark: listed apart in the source
human claudin-3 [26] = target: T11, human claudin-3; remark: listed apart in the source
human claudin-4 [27] = target: T12, human claudin-4; remark: listed apart in the source
human claudin-6 [28] = target: T13, human claudin-6 (human, UniProt P56747 1-220)
T13 sequence: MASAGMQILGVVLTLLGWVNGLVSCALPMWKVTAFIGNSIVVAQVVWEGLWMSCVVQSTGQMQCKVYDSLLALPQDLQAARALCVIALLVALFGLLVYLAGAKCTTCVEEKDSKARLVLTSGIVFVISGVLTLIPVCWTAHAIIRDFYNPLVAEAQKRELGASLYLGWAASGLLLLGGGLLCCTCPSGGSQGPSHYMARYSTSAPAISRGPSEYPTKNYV

human claudin-9 [29] = target: T14, human claudin-9 (human, UniProt O95484 1-217)
T14 sequence: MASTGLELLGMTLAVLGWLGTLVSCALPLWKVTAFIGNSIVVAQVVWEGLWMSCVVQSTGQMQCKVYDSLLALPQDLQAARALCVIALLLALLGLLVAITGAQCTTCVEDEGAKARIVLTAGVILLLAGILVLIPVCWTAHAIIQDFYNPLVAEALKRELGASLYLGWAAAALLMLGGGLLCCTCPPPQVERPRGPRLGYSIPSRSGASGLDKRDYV

human claudin-17 [30] = target: T15, human claudin-17 (human, UniProt P56750 1-224)
T15 sequence: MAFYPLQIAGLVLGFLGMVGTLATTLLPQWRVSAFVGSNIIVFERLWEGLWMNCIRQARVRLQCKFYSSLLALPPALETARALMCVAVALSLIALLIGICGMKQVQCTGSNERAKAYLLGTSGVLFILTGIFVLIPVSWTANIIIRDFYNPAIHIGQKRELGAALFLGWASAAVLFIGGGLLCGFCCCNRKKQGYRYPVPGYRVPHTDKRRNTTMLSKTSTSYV

human claudin-19 [31] = target: T16, human claudin-19 (human, UniProt Q8N6F1 1-224)
T16 sequence: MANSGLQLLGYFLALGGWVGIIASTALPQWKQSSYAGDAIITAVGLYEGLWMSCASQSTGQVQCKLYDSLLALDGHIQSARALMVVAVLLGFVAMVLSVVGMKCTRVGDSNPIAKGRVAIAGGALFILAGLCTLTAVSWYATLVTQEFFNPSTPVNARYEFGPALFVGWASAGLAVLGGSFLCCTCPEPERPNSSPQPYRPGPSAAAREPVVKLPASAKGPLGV

murine claudin-4 [32] = target: T17, murine claudin-4 (mouse, UniProt O35054 1-210)
T17 sequence: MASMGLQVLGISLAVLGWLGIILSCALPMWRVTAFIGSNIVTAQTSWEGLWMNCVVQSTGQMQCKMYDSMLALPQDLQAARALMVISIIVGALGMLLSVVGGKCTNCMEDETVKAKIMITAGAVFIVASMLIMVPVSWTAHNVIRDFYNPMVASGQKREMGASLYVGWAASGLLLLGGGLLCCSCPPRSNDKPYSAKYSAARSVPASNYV

T12 sequence (O14493 whole entry): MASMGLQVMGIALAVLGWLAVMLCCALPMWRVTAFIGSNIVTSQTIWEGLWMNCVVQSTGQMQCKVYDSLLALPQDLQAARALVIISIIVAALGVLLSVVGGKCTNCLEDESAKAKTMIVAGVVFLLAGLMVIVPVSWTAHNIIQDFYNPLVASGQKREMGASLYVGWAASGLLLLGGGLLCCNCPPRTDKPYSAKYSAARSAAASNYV
T11 sequence (O15551 whole entry): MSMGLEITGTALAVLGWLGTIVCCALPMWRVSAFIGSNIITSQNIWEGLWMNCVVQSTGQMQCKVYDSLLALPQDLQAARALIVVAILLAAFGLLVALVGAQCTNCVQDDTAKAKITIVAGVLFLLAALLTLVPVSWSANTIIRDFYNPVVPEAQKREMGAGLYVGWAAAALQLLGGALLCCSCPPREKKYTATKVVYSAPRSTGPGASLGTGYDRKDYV
T10 sequence (O95832 whole entry): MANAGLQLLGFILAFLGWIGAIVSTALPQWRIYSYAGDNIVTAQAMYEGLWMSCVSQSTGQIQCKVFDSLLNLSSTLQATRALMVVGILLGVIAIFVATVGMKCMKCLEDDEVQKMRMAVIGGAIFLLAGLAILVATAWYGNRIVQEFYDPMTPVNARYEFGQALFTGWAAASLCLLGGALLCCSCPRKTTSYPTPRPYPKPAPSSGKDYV
T2 sequence (O00501 whole entry): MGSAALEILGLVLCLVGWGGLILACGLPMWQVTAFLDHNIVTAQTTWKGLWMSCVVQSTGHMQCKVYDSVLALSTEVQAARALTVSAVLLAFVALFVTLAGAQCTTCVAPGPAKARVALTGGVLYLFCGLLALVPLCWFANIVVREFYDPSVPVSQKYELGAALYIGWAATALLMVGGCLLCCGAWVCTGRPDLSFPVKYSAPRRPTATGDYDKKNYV
human peripheral myelin protein 22, sequence (Q01453 whole entry): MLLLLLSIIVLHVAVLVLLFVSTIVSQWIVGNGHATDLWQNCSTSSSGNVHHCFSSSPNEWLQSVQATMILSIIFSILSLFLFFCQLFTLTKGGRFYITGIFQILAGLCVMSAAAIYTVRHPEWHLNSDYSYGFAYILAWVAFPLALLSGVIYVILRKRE
T5 sequence (Q9Z0S5 whole entry): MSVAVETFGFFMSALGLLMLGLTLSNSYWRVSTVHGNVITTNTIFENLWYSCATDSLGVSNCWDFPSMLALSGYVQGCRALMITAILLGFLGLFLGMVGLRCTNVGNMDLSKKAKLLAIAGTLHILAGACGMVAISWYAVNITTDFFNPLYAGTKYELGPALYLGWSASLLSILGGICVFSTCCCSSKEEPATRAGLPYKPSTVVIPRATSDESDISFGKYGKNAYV
murine claudin-3, sequence (Q9Z0G9 whole entry): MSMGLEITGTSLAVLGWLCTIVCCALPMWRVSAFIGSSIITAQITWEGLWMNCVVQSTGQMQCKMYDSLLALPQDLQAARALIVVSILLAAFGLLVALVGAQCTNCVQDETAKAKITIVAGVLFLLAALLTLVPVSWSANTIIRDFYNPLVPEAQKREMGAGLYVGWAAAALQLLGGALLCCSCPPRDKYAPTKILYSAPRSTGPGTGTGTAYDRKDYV
human occludin, sequence (Q16625 whole entry, the tested form may be a part): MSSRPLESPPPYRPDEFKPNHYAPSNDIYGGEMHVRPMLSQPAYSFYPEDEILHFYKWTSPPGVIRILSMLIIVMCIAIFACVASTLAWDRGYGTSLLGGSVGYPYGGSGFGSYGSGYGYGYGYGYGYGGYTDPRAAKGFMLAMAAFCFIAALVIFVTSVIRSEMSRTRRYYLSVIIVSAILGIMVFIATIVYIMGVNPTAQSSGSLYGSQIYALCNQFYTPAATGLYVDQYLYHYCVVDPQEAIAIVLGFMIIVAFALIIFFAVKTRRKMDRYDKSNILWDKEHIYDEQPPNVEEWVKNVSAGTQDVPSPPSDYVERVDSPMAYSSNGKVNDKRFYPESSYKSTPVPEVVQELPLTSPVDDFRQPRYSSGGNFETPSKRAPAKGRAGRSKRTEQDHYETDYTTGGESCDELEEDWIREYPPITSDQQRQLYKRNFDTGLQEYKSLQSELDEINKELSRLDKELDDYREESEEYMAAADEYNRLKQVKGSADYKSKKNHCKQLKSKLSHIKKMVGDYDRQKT

B1: COP-1 synthetic antibody fragment (sFab) without histidine tag (Fab, V domains shown)
VH: EVQLVESGGGLVQPGGSLRLSCAASGFNFSSSYIHWVRQAPGKGLEWVASISSSSGSTSYADSVKGRFTISADTSKNTAYLQMNSLRAEDTAVYYCARWFHPWWWWEYLFRGAIDYWGQGTLVTVSS
VL: DIQMTQSPSSLSASVGDRVTITCRASQSVSSAVAWYQQKPGKAPKLLIYSASSLYSGVPSRFSGSRSGTDFTLTISSLQPEDFATYYCQQSSSSLITFGQGTKVEIK
- Kd [1]: 2780 nM
- koff [1]: 0.11 s⁻¹

B2: COP-1 synthetic antibody fragment (sFab) with C-terminal histidine tag (Fab, V domains shown)
VH: B1 VH
VL: B1 VL
- binding result (human occludin): no binding (tested: 500 nM)
- binding result [2]: no binding
- Kd (human claudin-5 [3]): 72 nM and 65.5 nM
- Kd (human claudin-6 [4]): 59 ± 0.9 nM
- Kd (human claudin-9 [5]): 69.9 ± 1.2 nM
- Kd (murine claudin-15 [6]): 63.3 nM and 61.2 nM
- Kd (human claudin-17 [7]): 65.5 ± 0.9 nM
- Kd [8]: 83.4 nM and 56.7 nM
- Kd [9]: 62.8 nM and 55.6 nM
- Kd (human claudin-19 [10]): 62.4 ± 1.1 nM
- Kd (human claudin-1 [11]): 76.3 nM and 73.2 nM
- Kd (human claudin-3 [12]): 64.2 ± 1.1 nM
- Kd (murine claudin-3): 90.5 ± 1.2 nM
- Kd (human claudin-4 [13]): 72.8 ± 0.9 nM
- Kd (murine claudin-4 [14]): 99.6 ± 1.2 nM
- Kd (human claudin-5 [15]): 75.8 ± 0.5 nM
- koff (human claudin-5 [15]): 0.0015 s⁻¹
- kon (human claudin-5 [15]): 19000 M⁻¹ s⁻¹
- t1/2 (human claudin-5 [15]): 7.7 min
- Kd (human claudin-6 [16]): 59.5 ± 0.4 nM
- koff (human claudin-6 [16]): 0.0011 s⁻¹
- kon (human claudin-6 [16]): 18000 M⁻¹ s⁻¹
- t1/2 (human claudin-6 [16]): 10.5 min
- Kd (human claudin-9 [17]): 66 ± 0.4 nM
- koff (human claudin-9 [17]): 0.0015 s⁻¹
- kon (human claudin-9 [17]): 22000 M⁻¹ s⁻¹
- t1/2 (human claudin-9 [17]): 7.7 min
- Kd (murine claudin-15 [18]): 59 ± 0.5 nM
- koff (murine claudin-15 [18]): 0.0012 s⁻¹
- kon (murine claudin-15 [18]): 21000 M⁻¹ s⁻¹
- t1/2 (murine claudin-15 [18]): 9.6 min
- Kd (human claudin-17 [19]): 80.2 ± 0.6 nM
- koff (human claudin-17 [19]): 0.0015 s⁻¹
- kon (human claudin-17 [19]): 19000 M⁻¹ s⁻¹
- t1/2 (human claudin-17 [19]): 7.7 min
- Kd [20]: 92.4 ± 0.5 nM
- koff [20]: 0.0014 s⁻¹
- kon [20]: 16000 M⁻¹ s⁻¹
- t1/2 [20]: 8.3 min
- Kd [21]: 66.4 ± 0.5 nM
- koff [21]: 0.0009 s⁻¹
- kon [21]: 13000 M⁻¹ s⁻¹
- t1/2 [21]: 12.8 min
- Kd (human claudin-19 [22]): 62.2 ± 0.4 nM
- koff (human claudin-19 [22]): 0.0011 s⁻¹
- kon (human claudin-19 [22]): 17000 M⁻¹ s⁻¹
- t1/2 (human claudin-19 [22]): 10.5 min
- Kd [23]: 109.5 ± 0.8 nM
- koff [23]: 0.002 s⁻¹
- kon [23]: 18000 M⁻¹ s⁻¹
- t1/2 [23]: 5.8 min
- Kd [24]: 238 ± 2.9 nM
- koff [24]: 0.0044 s⁻¹
- kon [24]: 18000 M⁻¹ s⁻¹
- t1/2 [24]: 2.7 min
- Kd (human claudin-1 [25]): 61.3 ± 0.5 nM
- koff (human claudin-1 [25]): 0.0009 s⁻¹
- kon (human claudin-1 [25]): 15000 M⁻¹ s⁻¹
- t1/2 (human claudin-1 [25]): 12.8 min
- Kd (human claudin-3 [26]): 57.9 ± 0.5 nM
- koff (human claudin-3 [26]): 0.0012 s⁻¹
- kon (human claudin-3 [26]): 21000 M⁻¹ s⁻¹
- t1/2 (human claudin-3 [26]): 9.6 min
- Kd (human claudin-4 [27]): 70.6 nM and 106 nM

B3: C-terminal domain of Clostridium perfringens enterotoxin, histidine-tagged (domain or fragment)
chain: EILDLAAATERLNLTDALNSNPAGNLYDWRSSNSYPWTQKLNLHLTITATGQKYRILASKIVDFNIYSNNFNNLVKLEQSLGDGVKDHYVDISLDAGQYVLVMKANSSYSGNYPYSILFQKF
- Kd (human claudin-6 [28]): 51.4 nM
- Kd (human claudin-9 [29]): < 20 nM
- Kd (human claudin-17 [30]): 27 nM
- Kd (human claudin-19 [31]): 27.5 nM
- Kd (murine claudin-4 [32]): < 20 nM
